Data set [1] deals with the molecule itself. Briefly: SEC-SAXS; complex of core+A2 and H2A/H2B purified by SEC, 4.83 mg/mL on Superdex 200 PC3.2/300, 5 mM DTT; Porod volume. For orientation: Size exclusion chromatography separates by hydrodynamic size, large species first.
For the next data set, the target named is H2A/H2B dimer (Xenopus, UniProt P06897 2-123; P02281 1-126). In words: other fluorescence titration; equilibrium tryptophan (W125) fluorescence, 340/360 ratio; tail or peptide 0.5 µM, histones titrated; 20 mM Tris pH 7.6, 150 mM NaCl, 1 mM EDTA, 1 mM DTT, 0.01% NP-40; single-site model. As to conditions: both partners purified.

A value given as a limit tells only on which side of the number the result lay.

B1: Npm core+A2 truncation (1–145) (domain or fragment)
chain: ASTASNTSKVEKPVSLIWGCELNEQNKTFAFKIEDEEEKCEHQLALRTVCLGDKAKDEFHIVEIVTQEEGKEKPVPIASLKPSILPMATMVGIELTPPVTFRLKAGSGPVYISGQHVAMEEDYSWAEEEDEGEEEEEEEEDPESP
A word on the stoichiometry N: it is the number of molecules, sites or subunits per partner or assembly. For B1, in data set [1], the “stoichiometry N” value stood at 5.

B2: A2 peptide (residues 119–145) (peptide)
chain: MEEDYSWAEEEDEGEEEEEEEEDPESP
The term Kd denotes the free concentration of one partner at which half of the binding sites on the other are occupied at equilibrium, for simple one-to-one binding. Take B2: the Kd with H2A/H2B dimer is below 50 nM.
